Measured values published in PMC8096781, “FOXM1D potentiates PKM2‐mediated tumor glycolysis and angiogenesis” (Molecular Oncology, 2021).

Target: PKM2 (purchased from Abcam) (UniProt P14618 1-531)
Test: cell-based or functional assay

Sequence of PKM2 (purchased from Abcam) (P14618 whole entry): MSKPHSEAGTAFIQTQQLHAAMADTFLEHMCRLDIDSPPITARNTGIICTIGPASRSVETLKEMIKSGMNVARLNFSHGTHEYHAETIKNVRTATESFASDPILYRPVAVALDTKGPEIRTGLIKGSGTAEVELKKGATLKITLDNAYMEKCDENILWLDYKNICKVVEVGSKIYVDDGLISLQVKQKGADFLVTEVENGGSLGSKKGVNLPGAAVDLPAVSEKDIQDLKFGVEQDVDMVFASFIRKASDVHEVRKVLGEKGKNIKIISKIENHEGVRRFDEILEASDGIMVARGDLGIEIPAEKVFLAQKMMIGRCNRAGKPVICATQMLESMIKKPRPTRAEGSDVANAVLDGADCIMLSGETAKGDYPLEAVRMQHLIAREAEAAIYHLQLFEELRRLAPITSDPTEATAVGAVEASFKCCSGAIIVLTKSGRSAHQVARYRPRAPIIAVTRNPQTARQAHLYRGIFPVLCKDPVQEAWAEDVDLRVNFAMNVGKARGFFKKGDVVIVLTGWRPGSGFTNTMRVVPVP

PK activity of PKM2 with FBP; FOXM1D added at 10, 20 and 30 μg per 10 μg PKM2 (molar ratios about 0.665, 1.33 and 2); share of the activity abolished at 1.33-fold FOXM1D: ~49%
B1: recombinant Flag-FOXM1D (purified) (natural protein, UniProt Q08050-4 1-786, looked up)
chain: MKTSPRRPLILKRRRLPLPVQNAPSETSEEEPKRSPAQQESNQAEASKEVAESNSCKFPAGIKIINHPTMPNTQVVAIPNNANIHSIITALTAKGKESGSSGPNKFILISCGGAPTQPPGLRPQTQTSYDAKRTEVTLETLGPKPAARDVNLPRPPGALCEQKRETCADGEAAGCTINNSLSNIQWLRKMSSDGLGSRSIKQEMEEKENCHLEQRQVKVEEPSRPSASWQNSVSERPPYSYMAMIQFAINSTERKRMTLKDIYTWIEDHFPYFKHIAKPGWKNSIRHNLSLHDMFVRETSANGKVSFWTIHPSANRYLTLDQVFKQQKRPNPELRRNMTIKTELPLGARRKMKPLLPRVSSYLVPIQFPVNQSLVLQPSVKVPLPLAASLMSSELARHSKRVRIAPKVFGEQVVFGYMSKFFSGDLRDFGTPITSLFNFIFLCLSVLLAEEGIAPLSSAGPGKEEKLLFGEGFSPLLPVQTIKEEEIQPGEEMPHLARPIKVESPPLEEWPSPAPSFKEESSHSWEDSSQSPTPRPKKSYSGLRSPTRCVSEMLVIQHRERRERSRSRRKQHLLPPCVDEPELLFSEGPSTSRWAAELPFPADSSDPASQLSYSQEVGGPFKTPIKETLPISSTPSKSVLPRTPESWRLTPPAKVGGLDFSPVQTSQGASDPLPDPLGLMDLSTTPLQSAPPLESPQRLLSSEPLDLISVPFGNSSPSDIDVPKPGSPEPQVSGLAANRSLTEGLVLDTMNDSLSKILLDISFPGLDEDPLGPDNINWSQFIPELQ
